Results reported in publication PMC7666139 (Communications Biology, 2020).
Non-standard residues stand in square brackets, D forms with d. No end group written: not given here. pY = N[C@@H](Cc1ccc(OP(=O)(O)O)cc1)C(=O)O

T1: 6xHis/Flag-tagged human SHP2 N-SH2 domain (human, UniProt Q06124 1-107)
T1 construct: human SHP2 phosphatase, N-SH2 domain, aa; 1-107; Gene synthesized; also called SHP2 SH2-N; SHP2 SH2(N) domain; source: E. coli, purified (Nickel-NTA, gel filtration)
T1 sequence (looked up): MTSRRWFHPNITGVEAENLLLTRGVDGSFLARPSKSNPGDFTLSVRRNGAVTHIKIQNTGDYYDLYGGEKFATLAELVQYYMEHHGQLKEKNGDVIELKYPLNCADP


Legend:
Settings in all cases: both partners purified
[1] = biological target: T2, 6xHis-tagged HACS1 SH3 domain (human, UniProt Q9NSI8 163-224); test: SPR; biotinylated phosphopeptide on a streptavidin gold sensor chip (OpenSPR); analyte 20 µM to 0.1 µM in 10 mM Tris-HCl, 100 mM NaCl, pH 7.4, 0.1% bovine serum albumin, 0.005% Tween-20, 0.05% NaN3; 40 µL/min; 1:1 interaction model
T2 construct: human HACS1 SH3 domain, codon-optimized synthetic gene; Gene synthesized, in a pD441NH expression vector (ATUM); 15N-labelled in the NMR experiments; Minimal folded SH3 domain is 168-222 by the NMR structure; also called HACS SH3 domain; 6xHis-tagged SH3 domain; source: E. coli, purified (Nickel-NTA, gel filtration)

[2] = biological target: T1, 6xHis/Flag-tagged human SHP2 N-SH2 …; test: as above
[3] = biological target: T2, 6xHis-tagged HACS1 SH3 domain; test: ITC; 600 µM PIRB-GB1 in the syringe, 37 µM 6xHis-tagged HACS1 SH3 domain in the cell; 10 mM Tris, 50 mM NaCl, 1 mM TCEP, 0.05 NaN3, pH 7.5; single-site binding model

T2 sequence (Q9NSI8 163-224): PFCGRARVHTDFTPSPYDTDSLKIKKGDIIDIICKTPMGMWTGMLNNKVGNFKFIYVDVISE

| Kd [1] | koff [1] | kon [1] | Kd [2] | koff [2] | kon [2] | Kd [3] | stoichiometry N [3] | Binder |
| --- | --- | --- | --- | --- | --- | --- | --- | --- |
| 8.7 µM | 0.017 s⁻¹ | 1900 M⁻¹ s⁻¹ | 6.7 µM | 0.026 s⁻¹ | 3800 M⁻¹ s⁻¹ |  |  | GGQDVT[pY]AQLHSLTRLREATE (also: biotin (position not given here)) [biotinylated human PIRB derived phosphopeptide] |
|  |  |  |  |  |  | 15.9 µM | 1 | LCSRTLRQGAAAS (peptide, UniProt P97484 797-809, looked up, 797-809; Methods: PIRB fragment and GB1 separated by a random 13 amino acid linker; Not phosphorylated; also called PIRB-GB1 hybrid protein; Protein GB1-tagged PIRB; source: E. coli, purified (Nickel-NTA, gel filtration); not shown: Protein G B1 domain (GB1), C-terminal, kept) [murine PIRB-GB1 fusion protein] |
| 15.9 µM |  |  |  |  |  |  |  | GGQDVT[pY]AQLCSRTLRQGAAAS (also: biotin (position not given here), The leading GG may be a spacer and not part of PIRB; also called murine PIRB phospho-ITIM3 peptide; source: synthetic peptide (Genscript)) [biotinylated murine PIRB derived phosphopeptide] |
